Results: the nanobody polyreactivity screen of Harvey et al. (2022)

Experiment: yeast display, Sf9 membrane polyspecificity reagent, FACS + sequencing; frameworks hold sequencing errors
In short: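 Nanobodies came from a synthetic yeast display library in Saccharomyces cerevisiae BJ5465, induced with galactose for 36–48 hours and stained for 1 hour at 4 °C with 10% biotinylated, detergent-solubilized Sf9 membrane reagent. Cells were enriched on streptavidin microbeads and then FACS-sorted, with low and high (top ~1%) gates set on anti-HA fluorescence for expression and streptavidin fluorescence for reagent binding. Each polyreactivity label reflects the gate a clone came from. Genes were amplified by colony PCR, sequenced by MiSeq 2 × 250 and filtered by CDR length.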

| Sequence | polyreactivity (PSR sort gate) |
| --- | --- |
| QVQLVESGGGLVQAGGSLRLSCAASGLISGDYAMGWYRQAPGKERELVARITSGDSTNYADSVKGRFTISRDNAKNTVYLQMNSLKPEDTAVYYCAAKRYVFQNDYWGQGTQVTVSS | low polyreactivity |
| QVQLVESGGGLVQAGGSLRLSCAASGFTFKLYAMGWYRQAPGKERELVAAISSSGGRTYYADSVKGRFTISRDNAKNTVYLQMNSLKPEDTAVYYCNAVRTVNDYHYDYWGQGTQVTVSS | high polyreactivity |
| QVHLVESGGCLVQAGGSLRLSCAASGFTITYNAMGWYRQAPGKEREFVAAITNNGSTYYADSVKGRFTISRDNAMNTVYFQMNSLKPEDTAVYYCAVDPGYYDEYNYWGQGTHVTVSS | low polyreactivity |
| QVQLVESGGGLVQAGGSLRLSCAASGGTFYGYAMGWYRQAPGKERELVAAINYRGGRTYYADSVKGRFTISRDNAKNTVYLQMNSLKPEDTAVYYCAATSYRLDGYDYWGQGTQVTVSS | high polyreactivity |
| QVQIVESGGGLVQAGGSLRLSCAASGSNNGYYTMGWYRQAPRKERELVAAINYSGGRTYYADSVKGRFTISRDNAKNTVYFQMNSLKPEDTAVYYCARAYYYGSDIMDYWGQGTQVTVSS | high polyreactivity |
| QVQLVESGGGLVQAGGSLRLSCAASGFIFRRYAMGWYRQAPGKERELVAAIRWDDGNTYYADSVKGRFTISRDNAKNTVYLQMNSLKPEDTAVYYCYADKWSSTDDWLYDYWGQGTQVTVSS | low polyreactivity |
| QVQLVESGGGLVQAGGSLRLSCAASGSTFSLNAMGWYRQAPGKERELVAAISGSGGSTYYADSVKGRFTISRDNAKHTVYLQMNSLKPEDTAVYYCNKYYYPLRKSFGYWGQGTQVTVSS | high polyreactivity |
| QVQLVESGGGLVQAGGSLRLSCAASGSIFYYYAMGWSRQAPGKEREFVAAIRESGGSTYYADSVKGSFTISRDNAKNTVYLQMNSLKAEDTAVYYCAVRRPRRNYNYPYDYWGQGTQVTVSS | low polyreactivity |
| QVQLVESGGGLVQAGGSLRLSCAASGFIFNAYAMGWYRQAPGKERELVAAVSWSGARTYYADSVKGRFTISRDNAKNTVYLQMNSLKPEDTAVYYCAAEYSGVHYQQAYDYSEGLDYWGQGTQVTVSS | low polyreactivity |
| QVQLVESGGGLVQAGGSLRLSCAASGRTLRYYAMGWYRQAPGKDRELVASISIGGSTYYADSVKGRFTISRDNAKNTVYLQMTSLKPEDTAVYYGATDYSNSGYGYWGQGTQVTVSS | low polyreactivity |
| QVQLVESGGGLVQAGGSLRLSCAASGSIFVGYAMGWYRQAPGKETELVAAISTRGGSTYYAETVKGRFTISRDNAKNTVYLQMNILKPEDNAVYYCAADYLDSTYGYVYGWDDYWGKGTQVTVSS | low polyreactivity |
| QVQLVESGGGLVQAGGSLRLSCAASGRTFYTYAMGWYIQAPGKEREFVAAIRFSGGNTYYADSVKGRFTISRDNAKNTVYLQMKSLKPEDTAVYYCAARRLLYKYWTGGPYDYWGQGTQVTVSS | high polyreactivity |
| QVQLVESGGGLVQAGGSLRLICAASGFIFWIYAMGWYRQAPGKEREFVAVITYRGDTTYYADSVKGRFTISRDNAKNTVYLQMNSLKPEDTAVYYCAAYTVQKYGYWGQGTQVTVSS | low polyreactivity |
| QVQLVESGGGLVQAGGSLRLSCAASGFNIYYYTMGWYRQAPGKERELVAAISKSGGNTYYADSVKGRFTISRDNAKNTVYLQMNSLKPEDTAVYYCAASRYNTVTYYYWGQGTQVTVSS | high polyreactivity |
| QVQLVESGGGLVQAGGSLSLSCAASGSIFWRNAMGWYRPAPGKERELVAAITSGGSTYYADSVKGRFTISRDNAKNTVYLQMNSLKPEDTAVYYCAAGYSYRYDYWGQGTQVTVSS | low polyreactivity |
| QDQLVESGGGLVQAGGSLRLSCAASGITFQWYAMGWYRQAPGKEREFVAAITYRGGSTYYADSVKGRFTISRDNAKNTVYLQMNSLKPEDTAVYYCARDDSRLLHPSWLDYWGKGTQVTVSS | high polyreactivity |

| Sequence | polyreactivity (PSR sort gate) |
| --- | --- |
| QVQLVESGGGLVQAGGSLRLSCAASGSIFWGYAMGWYRQAPGKERELVATIRNRGGSTYYADSVKGRFTISRDNAKNTVYLQMNSLKPEDTAVYYCAARFPHRHYLLYTYDYWGQGTQVTVSS | low polyreactivity |
| QVQLVESGGGLVQAGGSLRLSCAASGSIFGGYAMGWYRQAPGKERELVAAISSGGSTYYADSVKGRFTISRDNAKNTVYLQMKSLKPEDTAVYYCATSTYAYRRNSYYYTRPRFGYWGQGTQVTVSS | high polyreactivity |
| QVQLVESGGGLVQAGGSLRLSCAASGRIFRYYAMGWYRQAPGKERELVAAISGSGGSTYYADSVKGRFTISRDNAKNTVYLQMNSLKPEDTAVYYCNARYRIPSGEGDHWGQGTQVTVSS | low polyreactivity |
| QDQLVESGGGLVQAGGSLRLSCAPSGSIFYTNAMGWYRQAPRKERHLVAAISWGGGSTYYADSVKGRFTISRDNAKNTVYLQMNSLKAEDTAVYYCAARYYVYQQGFRSHVTKHYDYWGQGTQVTVSS | low polyreactivity |
| QVQLVESGGGLVQAGGSLSLICAASGGTFYKYAMGWYRQAPGKERELDAAISRSGGSTYYADSVKGRFTISRDNAKNTVYLQINRLKPEDTAVYYCKAYGSYWDFDYWGQRTQVTVSS | high polyreactivity |
| QVQLVESGGGLVQAGGSLRLSCAASGLTFQNNAMGRSRQAPGKERELVAVITRIGGSTYYADSVKGRFTISRDNAKNTVYLQLNSLKPEDTAVYYCAVRRRYTPGYDYWGQGTQVTVSS | high polyreactivity |
| QVQLVESGGGLVQAGGSLRLSCAASGSIFFFYVMGWYRPAPGKERELVAAITYSGGSTFYADSVKGRFTISRDNAKNTVYLQMNSLKPEDTAVYYCAADYGQWTPLDPYNHWGQGTQVTVSS | low polyreactivity |
| QVQLVESGGGLVQAGGSLRLSCAASGIIFRYNAMGWYRQAPGKERELVAAISRSSGSTYYADSVKGRFTISRDNAKNTVYLQMNSLKPEDTAVYYCAAYPRYRVEYWGQGTQVTVSS | high polyreactivity |
| QVQLEESGGGLVQAGGSHRLSCAASGSIIYPYTMGWYRQAPRKERELVAAISGGGRTYYADSVKGRFTISRDNAKNTVYLQMNSLIPEDTAVYYCAARRGYPSGYEYWGQGTQVSVSS | high polyreactivity |
| QVQLVESGGGLVQEGGSLRLSCAASGRTFWYYGMGWYRQAHGKERELVAAISRSGGRTSYADSVKGRFTISRDNAKNTVYLQMIRLKPEDTAVYYCATDGYYRYGYWGQGTQVTVSS | high polyreactivity |
| QVQLVESGGGLVQAGGSLRLSCAASGSTLRGYTMGWYRPAPGKERELVAAISWSGASTYYADSVKGRFTISRDSAKNTVYLQMNSLKPEVTAVYYCAVRYWAPYDEYGYWGQGTQVTVSS | high polyreactivity |
| QVQLVESGGGLVQAGGSLRLSCAASGRTFRVYAMGWYRPAPGKERELVATITSSGGSTYYADSVKGRFTISRDNAKNTVYLQMNSLKPEDTGVYYCNVSVYYNYDSSYYYWGQGTQVTVSS | low polyreactivity |
| QVQLVESGGGLVQAGGSLRLSCAASGSTFVPKDMGWNRQAPGKERELVAAISYSGGSTYYADSVKGRFTISRDNAKNTVYLQLNSLKPEDTAVDYCNAEGWYYLTEYGYWGQGTQVTVSS | low polyreactivity |
| QVQLGESGGGLVQAGGSLRLSCAASGYTFRPYAMGGYRQAPGKESELVAAISSGDSTNYADSVKGRFTISRDNAKNTVYLQMNSLNPEDTAVYYCAARRVGGGFYTWRNPAYEYWGQGTQVTVSS | high polyreactivity |
| QVQLVESGGGLVQAGGSLRLSCAASGRTFVYYAMGWYRQAPGKERELVAAISGSGGSTYYADSVKGRFTISRDNAKNTVYLQMNSLKPEDTAVYYCNVRGPGFYWNWGQSHYYGYDYWGQGTQVTVSS | high polyreactivity |
